Experimental data taken from publication PMC6881245.

Key:
Complement C1q [1] = molecular target: Complement C1q (UniProt P02745)
Complement C1q [2] = molecular target: Complement C1q (UniProt P02745); assay: flow cytometry on cholesterol crystals; C1q (50 μg/ml in PBS, 1 h RT) bound to cholesterol crystals (1.6 mg/ml), washed; vWF 10 μg/ml in PBS added for 1 h at RT, washed; vWF detected with polyclonal rabbit anti-vWF and anti-rabbit IgG-AF647; BD Accuri 6; n = 5
Complement C1q [3] = molecular target: Complement C1q (UniProt P02745); remark: listed apart in the source

Sequence of UniProt P02745 (P02745 23-245, chain 1 of 3): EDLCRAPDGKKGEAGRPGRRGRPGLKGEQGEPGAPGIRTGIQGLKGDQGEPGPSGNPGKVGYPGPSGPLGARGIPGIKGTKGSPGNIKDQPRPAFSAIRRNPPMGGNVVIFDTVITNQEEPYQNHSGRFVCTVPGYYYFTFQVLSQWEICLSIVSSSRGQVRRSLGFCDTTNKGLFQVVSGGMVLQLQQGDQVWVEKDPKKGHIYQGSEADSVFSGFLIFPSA
Sequence of UniProt P02745 (P02746 28-253, chain 2 of 3, further chain): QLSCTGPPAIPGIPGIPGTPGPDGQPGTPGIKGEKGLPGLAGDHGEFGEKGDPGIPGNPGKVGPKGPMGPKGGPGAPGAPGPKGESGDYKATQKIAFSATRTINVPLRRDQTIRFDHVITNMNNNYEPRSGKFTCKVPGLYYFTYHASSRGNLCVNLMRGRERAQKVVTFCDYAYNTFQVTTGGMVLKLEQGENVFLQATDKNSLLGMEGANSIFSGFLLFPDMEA
Sequence of UniProt P02745 (P02747 29-245, chain 3 of 3, further chain): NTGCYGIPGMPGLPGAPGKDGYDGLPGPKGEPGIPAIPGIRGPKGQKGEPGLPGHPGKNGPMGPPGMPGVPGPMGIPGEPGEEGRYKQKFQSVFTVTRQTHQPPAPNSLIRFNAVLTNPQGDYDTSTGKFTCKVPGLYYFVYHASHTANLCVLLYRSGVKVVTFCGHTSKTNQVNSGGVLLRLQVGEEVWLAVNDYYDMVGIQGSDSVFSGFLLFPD

- caspase-1 activity of HMDMs after 18 h with CC-C1q-vWF complexes, percent of CD11c+ cells in the FLICA+ gate; CC-C1q without vWF: 11.54% (7.29–28.38%) (Complement C1q [1]): 9.37%
- median gMFI of vWF staining on CC-C1q (Complement C1q [2]): 115000 gMFI
- early phagocytosis (30 min) of pHrodo-dyed CC-C1q-vWF complexes by HMDMs, percent of CD11c+ cells in the pHrodo Red Ester+ gate; CC-C1q without vWF: 62, 40% (49.05–68.78%) (Complement C1q [3]): 54.5%
- late phagocytosis (18 h) of CC-C1q-vWF complexes by HMDMs, percent of CD11c+ cells in the SSC^high gate; CC-C1q without vWF: 24.05% (22.55–34.60%) (Complement C1q [3]): 13.7%
Substance: von Willebrand factor (from UniProt P04275 764-2813) (natural protein)
